Experiment: soluble on expression in E. coli; label from the status in PepcDB or PDB records
With “MGSDKIHHHHHHMLLPNTRLIAAEQLLSPVDAARNRRLADTALTTAKSAGASYCDVRVGRYLRQFVITREAQVENVVNAESSGVGVRVLADGAWGFAATNTLTSDGVATATRQAVAIAKANARLGGTPVQLAPVTPAGQVSWKTPIKKNAMEVPLQDKVALLMDVNAAALNAGATFVASRMFAINEQKYFASSDGSYIDQDVHRLWLPFTVTAVDKASGKFRTRDGLSSPMGMGYEYLDGAAGEKHRLPGGLIGYGRSYDAREDAIAAAKQAREKLTAPSVKAGKYDLVIDPSNLFLTIHESVGHPLELDRVLGYEANYAGTSFATLDKRDAGYRWGSDAVTFVADKTQPGSLGAVGYDDEGVKTKQWDLVKDGILVDYQCTRDQAHLLGKTASDGCSYADSWSNVQFQRMPNVSLAPGRTPLAVADMIKNVERGLYIHGRGSYSIDQQRYNAQFGGQLFYEIENGQVTRLVEDGAYQIRTPEFWNACSAVCDQRDFRLGGSFFDGKGQPSQVSAVSHGSSTARFDGINVINTARSLG” the “soluble on expression in E. coli” value was “not soluble”. For “MVTVREAKLEDIKDIAKVHVDSWRTTYHEIIPIDYLNSLNYKEFEDKWKSRSLKGVFVAQDEKGSVFGFASFGPIRSEQEGYDGELYAIYLLEERQRQGAGRALLAKGAEFLLQHGFSSMFVWVIEQNPSIIFYQAYSPERVAEDNFEIAGVRLKEVGLGWPDLSALKTLLNR”, the “soluble on expression in E. coli” value was “soluble”. With “GASIHDPISAGRYFAQRLRANPNEVFAVLFLDNRHRAISFEELFHGTINGAEVHPREVVRRALTLNAAAVIVGHNHPSGNREPSPADQMITQRLKNALDLIDVRLVDHFVIGDGAPVSFAEHGWL” the “soluble on expression in E. coli” value was “not soluble”. With “ETDCRWDGCSQEFDSQEQLVHHINSEHIHGERKEFVCHWGGCSRELRPFKAQYMLVVHMRRHTGEKPHKCTFEGCRKSYSRLENLKTHLRSHTGEKPYMCEHEGCSKAFSNASDRAKHQNRTHSNEKPYVCKLPGCTKRYTDPSSLRKHVKTVHG” the “soluble on expression in E. coli” value was “soluble”. For “GMKSQWECFLQNLGVWEGSFSNFSPEGTLLNDTSSRLCLEGLNNNQTVRLTLSRSGKDDVIREFRSVGGGLLFFENGSFSEGLIQLGPFSEFGGELAFVHENRRLRLVQLFDRNGHLNGLTLIREHLAGTPVAERPLLQINDLLGEWRGQAVTIYRDLRPPDIYSTTLKIQLDDAGRLMQSTSFGERTITSTATIKGSIVLFDQDPEKQVQVLLLPDGASATSPLKVQLRQPLFLEAGWLIQSDLRQRMIRSYNDKGEWVSLTLVTEERV”, the “soluble on expression in E. coli” value was “soluble”. In the case of “PLGSDHWGKGDMSDEDDENEFFDAPEIITMPENLGHKRTGSHHHHHH”, the “soluble on expression in E. coli” value is reported as “soluble”. With “MQRLSPGEFKTLISKERKSHFITPFALVYKTFCDLGYDQKNSDYFLNNPSEYIIAMRKNCWKEFEPFEKEFTTRMLSYLIDEERIKDMSPYDAIRDFTMEYPTHIYDLALSNTQSRRSRAGKEFESILELLMMGAGIPVDVQGAIGKSFFQKNQIGKLVDLVMPGVVQYTSNKRNTMLISAKTTLRERWQEVPEEVNRTGIREMYLATLDDSFSEETINILYEANVVVVTTVENKNFKYKNNNRVLTFEDMLQSAMELSRKWNNVSYTDSEKEEIQQSILKQIEKYSDFPYVVNYYRNRLSALFD” the “soluble on expression in E. coli” value was “soluble”. For “GGSEDEDSPLDALDLVWAKCRGYPSYPALIIDPKMPREGMFHHGVPIPVPPLEVLKLGEQMTQEAREHLYLVLFFDNKRTWQWLPRTKLVPLGVNQDLDKEKMLEGRKSNIRKSVQIAYHRALQHRSKVQGE”, the “soluble on expression in E. coli” value was “soluble”. For “MSLIKKVLPLAEQLRPKNLNDIVGQDHILGENGLITKTIESQIPLSVILWGPPGCGKTSIARLYAQAFNMQFISMSAIFSGVADLKKTIKEAQNQPLFHKGTLLFVDEIHRFNKSQQDAFLPFVENGTIILIGATTENPSFYLNGALLSRLRVLPIYPLDGFSLEQLLERYEKQFAPLPLTAEARHWLITCAQGDGRYLYNLIENLRYASKQILDIPLLEKIFQKRSPLFDKRGDQHYNLISALHKSVRGSDPNAAIYWFTRMLEGGEEPLFLARRLIRMAVEDIGLSDPQALPLAIAAKDAYEMLGSPEGELALAEVVIYLALAPKSNAVYRAFGMAKESASKTSYLNPPLTILNAPTKMMKNLGYGKDYQYDPDLPEAFSGQNYFPDSLEKQHFYEPVERGFERELKKRLEYFEQLRLKKKEGHHHHHH”, the “soluble on expression in E. coli” value was “soluble”. With “MSLDDLQSIRESREIRIAMSGQYSPFSFANEQNQIVGFDASISEALAQRLGVKVSIVTTPFDGIIAGLLAKKYDAIIASMTITPERLRAVDFVGPYYHAGRTIVVKEDSPINSLADLKDVTVGVTLGDAHDKWARARGNLKVKTYKGLPEMLVDLEAGRLDALVMDSVPVLVAVKETGQKVRIITPPDSDGGVEGMGIALRKNNPELKAAMQQALNDMLADGSYEKISMKWIGKDIREGHHHHHH” the “soluble on expression in E. coli” value was “soluble”. In the case of “MGSDKIHHHHHHMAKPKRRYVCQACGSVTHRWQGQCVDCSEWNTLAEEAPETIFSAKHDLSSGGRRVAFVSLDQPVALPQRRKTGIAEFDRALGGGLVPGCAILMGGDPGIGKSTLLLQASAKVALSGGSAVYISGEEASDQVRLRADRLGLGKAPILLAAATSVRDILTTLGNMEPPSLVVIDSIQTMHSDQIEGAPGTVSQVRGCAFELIRYAKENGVALVLVGHVTKDGSIAGPRVLEHMVDVVMSFEGERSHQYRILRALKNRFGAVDEIGVFAMAGQGLEEVGNPSMLFLSGREQEVPGSAVFPALEGTRPVLVEIQALTVRLASGATPRRAVVGWDSGRLAMLLAVLEARCGLNFSSAEVYLNVAGGYRLTDPAADLAVAAALVSALSDRPLPSGSIWFGEISLAGEVRPVAHTPVRLKEAAKLGFSRGCGPEAGAEKVDGLRYSPLRLLPNLIDRVMGGS”, the “soluble on expression in E. coli” value is reported as “not soluble”. For “MTQFTTELLNFLAQKQDIDEFFRSSLETAMNDLLQVELSAFLGYEPYDKAGYNTGNSRNGAYTRRFETKYGVVNLLIPRDRNGEFSPALIPSYGRRDNHLEEMVIKLYRTGVTTREISDIIERMYGHHYSPATVSNISKATQENVASFHERSLEANYTVLYLDGTYLPLRRGTVSKECIHIALGVTSYGHKAILGYDIAPNENNASWSDLLERFKGQGVQQVSLVVSDGFNGLDQLIQQAFPMAKQQRCLVHIGRNIASKVKRADRALILEQFKTIYRAINVEEAKQALDSFINEWKPHYKKVIETLESIENLLIFYEFPHQIWGSIYSTNLIESLNKEIKRQTKKKVVFPNEESLERYLVTLFSDYNFKQGQRIHKGFGQCTDTLESLFD”, the “soluble on expression in E. coli” value was “not soluble”. With “MDPGPWNECVPVRMPDDPQIHMVSNTRQAVELLTKRWPVSHGQAYQAAIDICMAVLERESPAYVARVAFVAAAKEAQVNIVS” the “soluble on expression in E. coli” value was “not soluble”. In the case of “WIVQKQKKWSSDPVGTQKNVFDLLIKKAQKTTFGKDHAFDSIQSHADYCRLVPVREYEGFKEYIELVKQGTQDVLWPGIPLYFAKTSGTTSGVKYIPITKDSIGYHINGAKDALLNYVHQTGKSEFLDKKLIFLSGSPIMEKKNGIYIGRLSGIVNHHVPGYLRGNQLPSFETNCVDDWESKLEKIVDETIDQDMSLISGIPPWVQMYFDRIEERTHKKIKDVFPSFSLLVYGGVNFSPYKRKLIESIGKEIDTVETYPASEGFIAFQDIPGQAGLLLLLNSGIFYEFIPVEEYGSANPTRLTIGEVKTDVNYALVMSTNAGLFAYSIGDTVKFVSTAPYRIVVTGRVKHFISAFGEHVIGEEVEQAMKNALLKHPEVSITEFTVAPQVTPEEGLPYHEWLIEFISMPADMDQFAHDLDQEMIQKNIYYKDLIVGNILRPLVITSISAGGF”, the “soluble on expression in E. coli” value is reported as “not soluble”. In the case of “MGSDKIHHHHHHMRNSNLSKKPFIITIASTKGGSAKSTNAANIGAFCADHGLKTLLIDTDTQPTLSAYFALNYVAPGGIHEFLTYQDVEPSHIISKTTLSNLDLIQSNDPTNNVSQMLRNAPDGAIRFSFLLKKLKGYDVIIVDTRGTRDITVDMSVLAADLLFCPILPHILSAKEFIRGTMGMYQELQTFEAFGFSLPPLKAVPNCVDHTNDVKFVLGHLKQLFEQNLSADKTLLDFHIPNKVAYREAATYSLPVYRHSKAEYVVIQALCMHLLPQFAHQFEQGLSGHLGGHNV”, the “soluble on expression in E. coli” value is reported as “not soluble”. For “MNNPEESAVTDLRKFTNLVLNGLVDEEATAAALIRYQFQQRTIKDVVRRGSEDPELKAQICDLLNHLVIYLNEEIVETSSKACPDGMDDRHFVQLEKRMHLMFEVYLAMNVVPDYLIPDLTKHVDASREAVKYSYSLCKDYYRWKELPLTLKEFFLDEKEEVKAVVDEPEPTMFARDDGVVSSLAHEKAQSDEDGKKKQFVAKTEKVLNNYRAKNPDYRTMRELINAKTKFRLEGIYCDSLIDDFISVWDMAIDIEPVKTEDKFAFTSLLKKVFLMMVDKRRNDFASKILDKYNNDASGVLPCLDNFVENFQTGLTAAINNLPLDANVLSNNMELFEKAKDPIIWYLLISPAYTVQQILLICVDNKGYVPLVSRIFRAIPTLFERSVNLTPMHFEGFKTQKLLITILHRVFIIGRTTWTSASQWENAAMMTMSFAKERKRKEGQPEKVEDKALLDSFSLVNFALNELFKDYRKPLKAVEIFVKMLQRLLANNNNARMLTNYQFSSSFFDDGNNYLPTSIIMLLMFDLLVEYDGQSNEVCDGARDILKSVSGRLNNDNIIFDTDTCRHLIDEKLNYAPWWIKYSICSWFSSSLQNPKKQVPSGVYKTIAEQHLDEFEQIKPEEVSTVSDCYFRSLFELGLFDVDLAIELLQYGHVAKFESSVVEKIALALVDSYGKKMSKRSGGLDIGKLIISMLQNSSYLESVKKIEHILVLFMAARIAKEKQLSAARVRTDDTIQTAYDEVISLNQVSDQLMDIFCETTKAHVDKEVMEVEQMRREVEVLLFSTPGTTPNQFKAMVEKENREQSLALQLSMIYLNCSYFCRLYQQVPIKLQQLMNSTLEKQFDSQKFLAKKVMDDVLTEKRKTEVVYAFVDTPVEPTPNEDNIQPVKPAELFRPPVVENVSVESTTYNSNGGGYRQGRYQTGYQGKNRRSNFEQPTSSRGSGRSDRTYAYKGNRFQPVNDSHVFAPRERENVYQNSSHDRDIPRNDYSEYDQEKLYLDDKQPRFHSENRNSNDVRRYSESKDSKYDNKNWNNRSSRWPSESEYSQEDSENRHLDQTIQSVRKFSYRENQQKHNRPGTSSASPPKNQEWKQHQQQKKSFGGGFGENGNKFNGNSRKQPERKPRYTSSNFYEQDEDSLQLLKPDRNELAQAMGLNDPPNPPKPRRSEWTRR”, the “soluble on expression in E. coli” value was “not soluble”. For “KTDPRSMNSRVFIGNLNTLVVKKSDVEAIFSKYGKIVGCSVHKGFAFVQYVNERNARAAVAGEDGRMIAGQVLDINLAAEPKVNR”, the “soluble on expression in E. coli” value was “soluble”. For “TRFVPGGPVERMLSQMQSQGDGAASMTSAGGNTALSDEQIAELNAFYGLDKPVMEAYVDWLSRLVTLDLGESTRYYEPVSDMIAERLP”, the “soluble on expression in E. coli” value was “not soluble”. In the case of “MLSTSASLYLNELINEMRQLSETPIDCKNARMLLSKEISKVFDELYRHGQGFIDNGYGSDYNKNDFYSPHSANSGYSASPFPSRPSLPNHALSTSFYHNSFMTPIRNGRMRSPDQDLGDWSREKINDTQHVLQTKVYIPEPPVSIDGKKVKCNYIGRILGPSGMSARMIENQYDVTLLIRGAGSVRNKAMDERVRKRNEHLEEPLHVLLIARHNDKTKCEEILNKAAEKIESLLTPIHDEYKMDQLVSYAKMNGTYQERPKRKSQLDEQSHSNYWAPH”, the “soluble on expression in E. coli” value is reported as “not soluble”. For “MQTEVKETPRYAIVASVQLPEVSDAEFEASLTELSELAKTLGFQVVQTFVQKRSSFDRTAYMGVGKLDEISMYVKRGIRADELEDEPQELDASSVAIDALLVDHEISPSQARNLELAVGCEVMDRTMVILEIFHRNARSRAARAQVEIARLGYMAPRLREAAKLAGPQGRQRSGMGGRGAGESHTELDRRKVRDRIAELQREIVAMELERKTQRARRLERQGLGLGGVSLVGYTNAGKSTLMRALTGSEVLVANKLFATLDTTVRVLHPESVPRVLVSDTVGFIKNLPHGLVASFKSTLEEALDASLLLHAIDASDPGFQRQLEVTDEVLREIGADDVPRIRVFNKIDHVGDEAEQAAWTAELRQRYPGCVVMSALRPEDVASLRAAIVAFFQQDLVEDELLLPWSAQQLRGEIYSHCQVLEERAEEEGCWFRVRGEPEKLRSLREQLNPGSQGREKEYWEALEHHHHHH”, the “soluble on expression in E. coli” value was “not soluble”.

Reference: the DeepSol protein solubility set
